Consider three molecules from patent US20260034233A1 (SUNMED THERAPEUTIC, published 2026).

The target in one assay is T1, Mouse GAL-3 (mouse, UniProt P16110 2-264, limits assumed).
T1 construct: also called mouse Galectin-3
As to the kind of experiment: SPR.

In another assay the target is T2, Rat GAL-3 (rat, UniProt P08699 2-262, limits assumed).
T2 construct: also called rat Galectin-3
T2 sequence (looked up): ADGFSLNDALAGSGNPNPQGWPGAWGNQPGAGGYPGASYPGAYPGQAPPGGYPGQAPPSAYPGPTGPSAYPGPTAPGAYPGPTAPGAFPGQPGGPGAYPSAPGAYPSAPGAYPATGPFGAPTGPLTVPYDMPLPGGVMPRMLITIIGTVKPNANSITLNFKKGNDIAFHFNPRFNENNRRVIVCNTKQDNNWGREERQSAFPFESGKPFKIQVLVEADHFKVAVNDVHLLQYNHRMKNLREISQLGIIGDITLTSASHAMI
As to the kind of experiment: SPR.

The target of assay [1] is T3, human Galectin-3 (human, UniProt P17931 2-250, limits assumed).
T3 construct: also called Human GAL-3; hGal-3
T3 sequence (P17931 2-250 limits assumed): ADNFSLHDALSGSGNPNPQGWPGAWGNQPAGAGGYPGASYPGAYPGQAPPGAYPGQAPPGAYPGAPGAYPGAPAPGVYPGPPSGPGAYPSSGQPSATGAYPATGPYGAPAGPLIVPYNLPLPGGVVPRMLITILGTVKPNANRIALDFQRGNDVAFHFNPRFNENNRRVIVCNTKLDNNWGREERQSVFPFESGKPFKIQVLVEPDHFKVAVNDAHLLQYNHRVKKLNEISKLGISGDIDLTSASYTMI
The assay can be described thus: SPR. In general terms: SPR reads the build-up and loss of mass on a sensor chip optically.

The next assay has as its target T4, Gal3-e.
T4 construct: also called Galectin3-e; Gal-3 peptide
T4 peptide: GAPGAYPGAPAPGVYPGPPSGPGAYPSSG
As to the kind of experiment: size exclusion chromatography of the mixture. Here is the method:
For X-ray diffraction, first we developed a homogeneous Gal3-e-Fab complex through Size Exclusion Chromatography (SEC) and analyzed the complex through crystallization screening and optimization. However, no diffraction patterns but only large block- and rod-shaped crystals were observed by multi-rounds of optimization. Screened commercial kits included crystal screens, structure screens, Index, JCSG plus, PEG/Ion1&2, ProPlex screens, and additive screens.
Excess Gal3-e were incubated with the Fab on ice for 30 minutes. After the incubation, Gal3-e-Fab complex was isolated from the mixture using SEC (Column: Superdex 75 increase 10/300).
On the technique in general: In gel filtration, larger molecules generally elute earlier.

The target of assay [2] is T3, human Galectin-3. As to the kind of experiment: ELISA on human Galectin-3. On the technique in general: In an ELISA, binding on a coated surface is turned into a signal by an enzyme label.

T1 sequence (P16110 2-264 limits assumed): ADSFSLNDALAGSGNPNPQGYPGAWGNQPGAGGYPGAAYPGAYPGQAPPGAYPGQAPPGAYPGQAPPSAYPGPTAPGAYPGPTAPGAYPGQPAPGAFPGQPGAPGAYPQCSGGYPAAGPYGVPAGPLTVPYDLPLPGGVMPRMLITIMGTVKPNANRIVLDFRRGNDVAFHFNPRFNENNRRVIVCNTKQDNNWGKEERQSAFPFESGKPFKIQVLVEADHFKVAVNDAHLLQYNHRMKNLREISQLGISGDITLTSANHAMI

B1: SIF001 (antibody, V domains shown)
VH: QVQLVQSGSELKKPGASVKVSCKASGYTFTNYGMNWVRQAPGQGLEWMGWINTYTGEPTYADDFKGRFVFSLDTSVSTAYLQISSLKNEDMAVYFCARYAMDYWGQGTLVTVSS
VL: EAVVTQEPSLTVSPGGTVTLTCRSSTGAVTTSNYANWVQQKPGQAFTGLIGGTSNRAPGTPARFSGSLLGDKAALTLLGAQPEDEAEYFCALWYSTHYVFGGGTKLTVL
notes: Humanized monoclonal antibody raised against human GAL-3; also called SIF001 Ab; SF001
The Kd is the equilibrium constant for the complex coming apart. Lower therefore signals tighter binding. With B1, the Kd came to 10.9 nM in the assay with Mouse GAL-3, 11.7 nM with Rat GAL-3 and 71.5 nM in the assay with human Galectin-3 [1].

B2: Fab of the SIF001 antibody (Fab, V domains shown)
VH: B1 VH
VL: B1 VL
As to B2, in the assay with Gal3-e, the binding result is on record as “binds”.

B3: SIF002 (antibody, V domains shown)
VH: EVQLLESGGGLVQPGGSLRLSCAASGFTFSRFWMSWVRQAPGKGLEWVSEISPDSNTIDLTPSLKDRFTISRDNSKNTLYLQMNSLRAEDTAVYYCAKPYYGYYWGQGTLVTVSS
VL: DIVMTQSPDSLAVSLGERATMNCRSSQSLFSSTNQKNYLTWYQQKPGQPPKLLIYWASSRESGVPDRFSGSGSGTDFTLTISSLQAEDVAVYYCQNDYTSPFTFGQGTRLEIK
For B3, the binding result with human Galectin-3 [2] is on record as “binds”.
